Assay results published in article PMC5925078.

Legend:
[1] = molecular target: TNFR1 ECD (Homo sapiens) (UniProt P19438); test: SPR; settings: cited from earlier work
[2] = molecular target: TNFR2 ECD (Homo sapiens) (UniProt P20333); test: SPR; settings: cited from earlier work
[3] = molecular target: membrane TNF (UniProt P01375); test: cellular binding study with GpL (luciferase) fusion protein; reciprocal competition; memTNF-expressing HEK293 transfectants incubated 90 min with 100 ng/ml TNFR1ed-GpL or TNFR2ed-GpL, alone or mixed with 2,000 ng/ml sTNF or 2,000 ng/ml PGRNAdi; EV transfectants as non-specific binding

specific binding, fold over background (the pair that is blocked) [3]	Substance	Kd [1]	Kd [2]
–	Progranulin (from UniProt P28799)	1.77 nM	1.52 nM
> 2000 fold	TNFR1ed-GpL (from UniProt P19438 30-211) (receptor)	–	–
> 200 fold	TNFR2ed-GpL (from UniProt P20333 23-257) (receptor)	–	–
